{"source": "paper PMC2241861", "binders": {"B1": {"name": "ds45 (dsDNA)", "DNA 1": "TGGCACGACAGGTTTCCCGACTGGAAAGCGGGCAGTCAGCTCTAG", "DNA 2": "CTAGAGCTGACTGCCCGCTTTCCAGTCGGGAAACCTGTCGTGCCA"}, "B2": {"name": "ds15 (dsDNA)", "DNA 1": "CTCTAGACTCGACCG", "DNA 2": "CGGTCGAGTCTAGAG"}, "B3": {"name": "ds30 (dsDNA)", "DNA 1": "TGGCACGACAGGTTTCCCGACTGGAAAGCG", "DNA 2": "CGCTTTCCAGTCGGGAAACCTGTCGTGCCA"}}, "assay_in_all_cases": "EMSA", "key": {"[1]": {"biological_target": "T1, TWINKLE wt (lacks mitochondrial targeting sequence 1-42) (human, UniProt Q96RR1 43-684)", "T1 sequence": "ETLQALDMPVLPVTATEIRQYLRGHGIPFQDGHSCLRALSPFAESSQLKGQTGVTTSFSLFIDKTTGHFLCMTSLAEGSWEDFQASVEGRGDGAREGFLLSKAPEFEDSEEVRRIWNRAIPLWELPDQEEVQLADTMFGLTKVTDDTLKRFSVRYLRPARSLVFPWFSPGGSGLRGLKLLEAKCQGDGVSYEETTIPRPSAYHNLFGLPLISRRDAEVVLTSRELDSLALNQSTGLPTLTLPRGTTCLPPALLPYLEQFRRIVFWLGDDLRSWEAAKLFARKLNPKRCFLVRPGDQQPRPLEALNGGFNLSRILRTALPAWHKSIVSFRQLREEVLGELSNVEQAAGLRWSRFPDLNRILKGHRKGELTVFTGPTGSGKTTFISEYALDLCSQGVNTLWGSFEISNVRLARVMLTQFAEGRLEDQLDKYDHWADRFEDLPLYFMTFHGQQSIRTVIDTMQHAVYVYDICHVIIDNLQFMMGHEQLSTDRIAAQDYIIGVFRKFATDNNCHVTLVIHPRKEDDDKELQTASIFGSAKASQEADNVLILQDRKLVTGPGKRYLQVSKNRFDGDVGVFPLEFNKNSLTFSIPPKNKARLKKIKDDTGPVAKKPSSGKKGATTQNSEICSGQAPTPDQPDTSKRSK"}, "[2]": {"biological_target": "T1, TWINKLE wt (lacks mitochondrial …)", "remark": "listed apart in the source"}, "TWINKY": {"biological_target": "T2, TWINKY (human, UniProt Q96RR1-2 43-582, del579-684)", "T2 sequence": "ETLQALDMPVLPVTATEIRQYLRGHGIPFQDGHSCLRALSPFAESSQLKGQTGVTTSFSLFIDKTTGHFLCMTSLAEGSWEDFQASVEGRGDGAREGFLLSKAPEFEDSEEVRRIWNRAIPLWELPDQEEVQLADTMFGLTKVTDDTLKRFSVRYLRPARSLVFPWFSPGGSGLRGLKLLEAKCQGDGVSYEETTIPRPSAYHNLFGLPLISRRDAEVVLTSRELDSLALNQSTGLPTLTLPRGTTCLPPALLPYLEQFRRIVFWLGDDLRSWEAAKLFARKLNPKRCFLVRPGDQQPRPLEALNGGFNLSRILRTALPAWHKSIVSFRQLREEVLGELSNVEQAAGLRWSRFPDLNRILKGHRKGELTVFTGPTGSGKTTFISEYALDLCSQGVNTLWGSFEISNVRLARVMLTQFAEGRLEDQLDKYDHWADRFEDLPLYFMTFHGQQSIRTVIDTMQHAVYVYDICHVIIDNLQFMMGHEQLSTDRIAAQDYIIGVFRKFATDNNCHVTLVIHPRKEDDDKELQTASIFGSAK"}, "TWINKLE Δ372-684": {"biological_target": "T3, TWINKLE Δ372-684 (human, UniProt Q96RR1 43-371, del372-684)", "T3 sequence": "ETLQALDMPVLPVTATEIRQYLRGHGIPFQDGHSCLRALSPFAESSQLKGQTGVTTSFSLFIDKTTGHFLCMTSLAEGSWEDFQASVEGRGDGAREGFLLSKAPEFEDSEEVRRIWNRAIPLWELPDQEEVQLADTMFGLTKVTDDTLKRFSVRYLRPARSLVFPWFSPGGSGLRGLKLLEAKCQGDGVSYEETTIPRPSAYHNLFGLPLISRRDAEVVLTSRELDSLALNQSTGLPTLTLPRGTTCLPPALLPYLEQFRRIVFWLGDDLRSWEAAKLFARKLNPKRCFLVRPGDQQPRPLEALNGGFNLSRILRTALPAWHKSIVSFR"}, "TWINKLE Δ1-121": {"biological_target": "T4, TWINKLE Δ1-121 (human, UniProt Q96RR1 122-684, del1-121)", "T4 sequence": "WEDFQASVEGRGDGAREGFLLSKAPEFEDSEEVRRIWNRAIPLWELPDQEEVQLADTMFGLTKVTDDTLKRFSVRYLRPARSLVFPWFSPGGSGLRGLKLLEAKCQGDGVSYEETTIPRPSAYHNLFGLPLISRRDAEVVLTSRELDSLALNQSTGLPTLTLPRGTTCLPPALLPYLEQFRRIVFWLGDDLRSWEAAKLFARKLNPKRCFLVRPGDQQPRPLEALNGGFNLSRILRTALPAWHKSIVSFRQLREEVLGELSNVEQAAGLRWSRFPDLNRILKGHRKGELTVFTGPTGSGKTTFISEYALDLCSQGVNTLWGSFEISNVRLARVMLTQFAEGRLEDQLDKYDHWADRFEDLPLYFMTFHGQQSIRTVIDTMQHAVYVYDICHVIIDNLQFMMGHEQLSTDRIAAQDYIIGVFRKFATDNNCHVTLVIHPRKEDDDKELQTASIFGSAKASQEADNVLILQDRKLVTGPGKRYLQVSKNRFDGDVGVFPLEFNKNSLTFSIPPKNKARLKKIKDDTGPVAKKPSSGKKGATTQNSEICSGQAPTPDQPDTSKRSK"}}, "data": [{"binder": "B1", "values": [{"measurement": "binding result", "setting": "[1]", "value": "binds"}]}, {"binder": "B2", "values": [{"measurement": "binding result", "setting": "[1]", "value": "binds"}]}, {"binder": "TTTTTTTTTTTTTTT (ssDNA)", "note": "[ss15 poly-dT]", "values": [{"measurement": "binding result", "setting": "[1]", "value": "no binding"}]}, {"binder": "TTTTTTTTTTTTTTTTTTTTTTTTTTTTTTTTTTTTTTTTTTTTT (ssDNA)", "note": "[ss45 poly-dT]", "values": [{"measurement": "binding result", "setting": "[1]", "value": "binds"}]}, {"binder": "TTTTTTTTTTTTTTTTTTTTTTTTTTTTTT (ssDNA)", "note": "[ss30 poly-dT]", "values": [{"measurement": "Kd", "setting": "[2]", "value": "~5", "unit": "nM"}, {"measurement": "binding result", "setting": "TWINKY", "value": "no binding"}, {"measurement": "binding result", "setting": "TWINKLE Δ372-684", "value": "no binding"}]}, {"binder": "B3", "values": [{"measurement": "Kd", "setting": "[2]", "value": "~5", "unit": "nM"}, {"measurement": "binding result", "setting": "TWINKLE Δ1-121", "value": "binds"}, {"measurement": "binding result", "setting": "TWINKY", "value": "no binding"}, {"measurement": "binding result", "setting": "TWINKLE Δ372-684", "value": "no binding"}]}]}
